Test results reported in patent publication US20240368263A1 (PROMETHEUS BIOSCIENCES, published 2024).

T1: Fas/TNFSF6 (R&D Systems, cat. no. 126-FL/CF) (UniProt P48023 134-281)
T1 sequence (looked up): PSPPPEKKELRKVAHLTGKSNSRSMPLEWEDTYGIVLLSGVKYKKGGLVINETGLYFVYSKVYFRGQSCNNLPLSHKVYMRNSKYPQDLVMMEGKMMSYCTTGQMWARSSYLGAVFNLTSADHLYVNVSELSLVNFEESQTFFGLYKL

T2: membrane-associated human TL1A on transfected HEK293 cells (human, UniProt O95150 1-251)
T2 construct: whole, on cells
T2 sequence (looked up): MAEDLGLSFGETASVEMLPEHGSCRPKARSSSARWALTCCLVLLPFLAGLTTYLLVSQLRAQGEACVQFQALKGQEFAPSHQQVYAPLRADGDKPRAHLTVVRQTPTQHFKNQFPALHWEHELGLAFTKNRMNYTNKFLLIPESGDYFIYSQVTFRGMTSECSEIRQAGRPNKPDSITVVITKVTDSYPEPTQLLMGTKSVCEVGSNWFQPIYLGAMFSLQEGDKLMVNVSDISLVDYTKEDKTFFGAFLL

T3: human TL1A (Fitzgerald, Prod. #30R-AT070) (human, UniProt O95150 72-251, limits assumed, biotinylated with EZ-Link Sulfo-NHS-LC-Biotin where used as soluble antigen)
T3 construct: also called TNFSF15; biotinylated human TL1A
T3 sequence (looked up): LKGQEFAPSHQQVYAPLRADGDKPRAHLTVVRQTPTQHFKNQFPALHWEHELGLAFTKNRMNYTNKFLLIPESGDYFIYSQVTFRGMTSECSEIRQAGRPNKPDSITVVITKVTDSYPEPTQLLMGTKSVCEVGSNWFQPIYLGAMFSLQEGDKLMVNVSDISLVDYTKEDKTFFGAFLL


Columns and labels:
[1] = molecular target: TRAIL/TNFSF10 (R&D Systems, cat. no. 375-TL/CF) (UniProt P50591 114-281); assay: ELISA, antigen coated at 1 µg/ml, Fab titrated
Chain of TRAIL/TNFSF10 (R&D Systems, cat. no. 375-TL/CF) (P50591 114-281 limits assumed): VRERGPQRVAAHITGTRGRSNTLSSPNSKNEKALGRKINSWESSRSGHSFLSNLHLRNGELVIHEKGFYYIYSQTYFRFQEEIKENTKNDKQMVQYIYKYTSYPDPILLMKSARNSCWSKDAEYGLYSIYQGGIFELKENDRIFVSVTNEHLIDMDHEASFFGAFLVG
Procedure: (§1) Next, all the Fab variants were characterized for their selectivity for human TL1A relative to other TNFSF members TRAIL, LIGHT and Fas. […] The plate was washed 3 times with PBS-T and blocked with 100 μl of 1% BSA/PBS. The block was discarded and the Fab variants or control antibodies (Fas/TNFSF6, R&D Systems, cat. no. AF126; TRAIL/TNFSF10, R&D Systems, cat. no. AF375; LIGHT/TNFSF14, R&D Systems, cat. no. AF664) were titrated in 50 μl 1% BSA/PBS and incubated for 1 h at 25° C. The plate was washed 3 times with PBS-T and secondary HRP-conjugated antibody (diluted 5,000-fold in 1% BSA/PBS) was added for 1 h at 25° C. The plate was washed 3 times with PBS-T and developed.

[2] = molecular target: LIGHT/TNFSF14 (R&D Systems, cat. no. 664-LI/CF) (UniProt O43557 74-240); assay: ELISA, antigen coated at 1 µg/ml, Fab titrated
Chain of LIGHT/TNFSF14 (R&D Systems, cat. no. 664-LI/CF) (O43557 74-240 limits assumed): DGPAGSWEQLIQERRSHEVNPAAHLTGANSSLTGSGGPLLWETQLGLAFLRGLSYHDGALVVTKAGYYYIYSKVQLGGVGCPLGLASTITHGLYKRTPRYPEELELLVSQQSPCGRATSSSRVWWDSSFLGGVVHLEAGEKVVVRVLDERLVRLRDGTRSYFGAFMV
Procedure: as §1

[3] = molecular target: T1, Fas/TNFSF6 (R&D Systems, cat. no. …); assay: ELISA, antigen coated at 1 µg/ml, Fab titrated
Procedure: as §1

[4] = molecular target: T2, membrane-associated human TL1A on …; assay: flow cytometry, HEK293 cells transfected with human TL1A
Procedure: All the Fab variants were tested for binding to membrane-associated human TL1A. For these studies a HEK293 cell line that had been transfected with human TL1A was used. The 293 cells expressing membrane bound human TL1A were maintained in DMEM containing L-glutamine, glucose, sodium pyruvate, and phenol red (ThermoFisher cat #11995-065) plus 10% fetal bovine serum, 1X penicillin-streptomycin (Fisher cat #15140122) and 2 μg/ml puromycin (Gibco cat #A11138-03) in a 37° C. incubator with 5% CO2. Three days prior to the assay, a T-75 flask was seeded with 3×10⁶ cells so that the flask was 90-95% confluent on the day of the assay. The media was aspirated and the cell monolayer was gently washed with 5 ml PBS. Adherent cells were removed by repeatedly pipetting 10 ml ice cold 1% BSA/PBS against the monolayer. The cells were counted and 5×10⁵ were aliquoted for each sample to be analyzed. The cells were collected by centrifuging at 300× g at 4° C. for 5 minutes and the wash was discarded. The cells were resuspended in 100 μl Fab or IgG diluted in 1% BSA/PBS and placed on ice for 30 min. Next, the cells were washed with 1 ml 1% BSA/PBS and collected by centrifuging at 300× g at 4° C. for 5 min. The wash was discarded and 100 μl secondary goat F (ab′) 2 anti-human kappa FITC (Southern Biotech cat #2062-02) or goat F (ab′) 2 anti-human IgG PE (Southern Biotech cat #2043-09) conjugate, diluted 1:200 in BSA/PBS was added. Cells were placed on ice for 30 min. Finally, the cells were washed with 1 ml BSA/PBS, collected by centrifuging at 300× g at 4° C. for 5 min. The wash was removed and the cells were resuspended in 500 μl 1% BSA/PBS. One drop of Sytox AADvanced ReadyFlow Reagent (ThermoFisher cat #R37173) was added per sample and the samples were analyzed on the Attune NXT Flow Cytometer (ThermoFisher).

[5] = molecular target: T3, human TL1A (Fitzgerald, Prod. …); assay: two ELISA formats: Fab on coated TL1A; captured Fab with biotinylated TL1A
Procedure: Fabs with the CDRs shown in Tables 19 to 22 were tested for binding to human TL1A in multiple formats. Next, uniform (saturating) quantities of soluble Fab variants were captured on the surface of an ELISA plate and soluble, biotinylated human TL1A was titrated as shown in FIGS. 10 to 13.

| binding result [1] | binding result [2] | binding result [3] | binding result [4] | binding result [5] | Binder |
| --- | --- | --- | --- | --- | --- |
| no binding | no binding | no binding | binds | binds | Clone 3-17L Fab (Fab, V domains shown, Fab) VH: QVQLVQSGAEVKKPGASVKVSCKASGFDIQDTYMHWVRQAPGQGLEWMGRIDPASGHLKYDPKFQGRVTITRDTSASTVYMELSSLRSEDTAVYYCARSGGLPDMWGQGTTVTVSS VL: EIVLTQSPGTLSLSPGERATLSCRASSSVSYMYWYQQKPGQAPRLLIYATSNLASGIPDRFSGSGSGTDFTLTISRLEPEDFAVYYCQQWQGNPRTFGGGTKLEIK |
| no binding | no binding | no binding | binds | binds | Clone H2-5 Fab (Fab, V domains shown, Fab; also called Clone 112-5) VH: QVQLVQSGAEVKKPGASVKVSCKASGFDIQDTYMHWVRQAPGQGLEWMGRIDPASGHYKYDPKFQVRATITTDTSASTAYLQLSSLRSEDTAVYYCARSGGLPDFWGQGTTVTVSS VL: EIVLTQSPGTLSLSPGERATLSCRASSSVSYMYWYQQKPGQAPRLLIYATSNLASGIPDRFSGSGSGTDFTLTISRLEPEDFAVYYCQQWSGNPRTFGGGTKLEIK |
| no binding | no binding | no binding | binds | binds | Clone A1 Fab (Fab, V domains shown, Fab) VH: QVQLVQSGAEVKKPGASVKVSCKASGFDIQDTYMHWVRQAPGQGLEWMGRIDPASGHLKYDPKFQNRVTMTRDTSTSTVYMELSSLRSEDTAVYYCARSGGLPDKWGQGTTVTVSS VL: EIVLTQSPGTLSLSPGERATLSCGASSSVSYMYWYQQKPGQAPRLLIYATSNLASGIPDRFSGSGSGTDFTLTISRLEPEDFAVYYCQQWEGNPRTFGGGTKLEIK |
| no binding | no binding | no binding | binds | binds | Clone L3-13 Fab (Fab, V domains shown, Fab) VH: QVQLVQSGAEVKKPGASVKVSCKASGFDIQDTYMHWVRQAPGQGLEWMGRIDPASGHTKYDPKFQGRATITTDTSASTAYLQLSSLRSEDTAVYYCARSGGLPDFWGQGTTVTVSS VL: EIVLTQSPGTLSLSPGERATLSCRASSSVSYMYWYQQKPGQAPRLLIYATSNLASGIPDRFSGSGSGTDFTLTISRLEPEDFAVYYCQQWKGNPRTFGGGTKLEIK |
| no binding | no binding | no binding | binds | binds | Clone 16 Fab (Fab, V domains shown, Fab; also called Clone 16L) VH: QVQLVQSGAEVKKPGASVKVSCKASGFDIQDTYMHWVRQAPGQGLEWMGRIDPASGHVKIDPKFQVRVTMTRDTSTSTVYMELSSLRSEDTAVYYCARSGGLPDMWGQGTTVTVSS VL: EIVLTQSPGTLSLSPGERATLSCRASSSVSYMYWYQQKPGQAPRLLIYATSNLASGIPDRFSGSGSGTDFTLTISRLEPEDFAVYYCQQWQGNPRTFGGGTKLEIK |
| no binding | no binding | no binding | binds | binds | Clone H2-2 Fab (Fab, V domains shown, Fab; also called Clone 112-2) VH: QVQLVQSGAEVKKPGASVKVSCKASGFDIQDTYMHWVRQAPGQGLEWMGRIDPASGHSKYDPKFQVRATITTDTSASTAYLQLSSLRSEDTAVYYCARSGGLPDFWGQGTTVTVSS VL: EIVLTQSPGTLSLSPGERATLSCRASSSVSYMYWYQQKPGQAPRLLIYATSNLASGIPDRFSGSGSGTDFTLTISRLEPEDFAVYYCQQWSGNPRTFGGGTKLEIK |
| no binding | no binding | no binding | binds | binds | Clone E1 Fab (Fab, V domains shown, Fab) VH: QVQLVQSGAEVKKPGASVKVSCKASGFDIQDTYMHWVRQAPGQGLEWMGRIEPASGHLKYDPKFQERVTMTRDTSTSTVYMELSSLRSEDTAVYYCARSGGLPDKWGQGTTVTVSS VL: EIVLTQSPGTLSLSPGERATLSCGASSSVSYMYWYQQKPGQAPRLLIYATSNLASGIPDRFSGSGSGTDFTLTISRLEPEDFAVYYCQQWEGNPRTFGGGTKLEIK |
| no binding | no binding | no binding | binds | binds | Clone 17L-1 Fab (Fab, V domains shown, Fab) VH: QVQLVQSGAEVKKPGASVKVSCKASGFDIQDTYMHWVRQAPGQGLEWMGRIDPASGHLKYDPKFQRRVTMTRDTSTSTVYMELSSLRSEDTAVYYCARSGGLPDMWGQGTTVTVSS VL: EIVLTQSPGTLSLSPGERATLSCRASSSVSYMYWYQQKPGQAPRLLIYATSNLASGIPDRFSGSGSGTDFTLTISRLEPEDFAVYYCQQWQGNPRTFGGGTKLEIK |
| no binding | no binding | no binding | binds | binds | Clone 3-17L V-A Fab (Fab, V domains shown, Fab) VH: QVQLVQSGAEVKKPGASVKVSCKASGFDIQDTYMHWVRQAPGQGLEWMGRIDPASGHLKYDPKFQGRVTITRDTSASTAYMELSSLRSEDTAVYYCARSGGLPDMWGQGTTVTVSS VL: EIVLTQSPGTLSLSPGERATLSCRASSSVSYMYWYQQKPGQAPRLLIYATSNLASGIPDRFSGSGSGTDFTLTISRLEPEDFAVYYCQQWQGNPRTFGGGTKLEIK |
| no binding | no binding | no binding | binds | binds | Clone H3-1 Fab (Fab, V domains shown, Fab) VH: QVQLVQSGAEVKKPGASVKVSCKASGFDIQDTYMHWVRQAPGQGLEWMGRIDPASGHTKYDPKFQGRATITTDTSASTAYLQLSSLRSEDTAVYYCARSGGLPDLWGQGTTVTVSS VL: EIVLTQSPGTLSLSPGERATLSCRASSSVSYMYWYQQKPGQAPRLLIYATSNLASGIPDRFSGSGSGTDFTLTISRLEPEDFAVYYCQQWSGNPRTFGGGTKLEIK |
